Measured values as given in US9327008B2, “Cell-permeant peptide-based inhibitor of kinases” (Purdue Research Foundation, priority 2008, dated 2016).

Legend:
43 kinases = assay: Specificity profile against battery of 43 kinases (Millipore KinaseProfiler); type: biochemical, human
Experimental: (§1) A commercial radiometric assay service (Millipore, Billerica, Mass.) was used to test the specificity and potency of peptides containing a coupled transduction domain and therapeutic domain, hereinafter “complete peptides”). In these assays, if the kinase is not inhibited by an inhibitor peptide, a positively charged substrate is phosphorylated with a radiolabeled phosphate group from an ATP.
(§2) IC50 values for inhibitor peptides were determined using Millipore's IC50Profiler Express service. The IC50 value was estimated from a 10-point curve of one-half log dilutions. For peptides tested for specificity, the concentration of the peptides that inhibited approximately 95% of MK2 activity was chosen to profile against a battery of kinases related to MK2, cell viability, or human disease from MilliporeKinaseProfiler service. In both assays, compounds were supplied in dimethylsulfoxide (DMSO). Every kinase activity measurement was conducted in duplicate.
(§3) Therapeutic inhibitor peptides were assayed for activity against human kinases related to MK2, cell viability, or human disease. The assays were performed using concentrations of therapeutic inhibitor peptides that yielded 2% to 8% of normal MK2 activity. Error is reported as the standard deviation between 2 samples, and “c” is rat AMPK whereas all other kinases used are human kinases.

Abl = target: T1, Abl (Homo sapiens, UniProt P00519); assay: Millipore radiometric kinase activity assay, Abl (h); type: biochemical
T1 construct: purchased Millipore (assay service)
Experimental: as §1
(§4) In a final reaction volume of 25 μL, Abl (h) (5-10 mU) is incubated with 8 mM MOPS pH 7.0, 0.2 mM EDTA, 50 μM […] [SEQ ID NO: 48], 10 mM MgAcetate and [γ-^33P-ATP] (specific activity approx. 500 cpm/pmol, concentration as required). The reaction is initiated by the addition of the MgATP mix. After incubation for 40 minutes at room temperature, the reaction is stopped by the addition of 5 μL of a 3% phosphoric acid solution. 10 μL of the reaction is then spotted onto a P30 filtermat and washed three times for 5 minutes in 75 mM phosphoric acid and once in methanol prior to drying and scintillation counting.
as §2, §3

PKG1β = target: T2, PKG1β (Homo sapiens, UniProt Q13976); assay: Millipore radiometric kinase activity assay, PKG1β (h); type: biochemical
T2 construct: purchased Millipore (radiometric assay service)
T2 sequence (Q13976 1-686 isoform Q13976-2): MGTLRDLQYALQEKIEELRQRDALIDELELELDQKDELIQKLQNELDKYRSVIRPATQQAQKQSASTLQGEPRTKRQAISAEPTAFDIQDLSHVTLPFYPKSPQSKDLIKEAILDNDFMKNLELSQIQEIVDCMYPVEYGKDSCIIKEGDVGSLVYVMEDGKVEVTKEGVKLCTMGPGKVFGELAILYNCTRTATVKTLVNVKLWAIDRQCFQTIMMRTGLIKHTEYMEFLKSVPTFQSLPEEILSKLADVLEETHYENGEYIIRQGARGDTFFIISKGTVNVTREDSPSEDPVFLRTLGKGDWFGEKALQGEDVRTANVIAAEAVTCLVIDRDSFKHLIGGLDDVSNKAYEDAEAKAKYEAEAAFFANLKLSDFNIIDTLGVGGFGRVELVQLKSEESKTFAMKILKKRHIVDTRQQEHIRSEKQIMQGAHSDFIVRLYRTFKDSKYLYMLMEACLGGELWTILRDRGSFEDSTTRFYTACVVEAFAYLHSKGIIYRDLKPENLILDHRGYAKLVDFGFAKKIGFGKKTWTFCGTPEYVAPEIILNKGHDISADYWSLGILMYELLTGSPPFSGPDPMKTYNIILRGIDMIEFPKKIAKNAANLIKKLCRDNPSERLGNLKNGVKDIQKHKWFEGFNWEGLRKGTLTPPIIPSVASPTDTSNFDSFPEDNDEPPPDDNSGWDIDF
Experimental: as §1
as §4, with “μL, PKG1β” for “μL, Abl”, “EDTA, 10 μM cGMP, 200” for “EDTA, 50”, “NO: 62],” for “NO: 48],”
as §2, §3

EphA2 = target: T3, EphA2 (Homo sapiens, UniProt P29317); assay: Millipore radiometric kinase activity assay, EphA2 (h); type: biochemical
T3 construct: purchased Millipore (assay service)
Experimental: as §1
In a final reaction volume of 25 μL, EphA2 (h) (5-10 mU) is incubated with 8 mM MOPS pH 7.0, 0.2 mM EDTA, 0.1 mg/mL poly(Glu, Tyr) 4:1, 10 mM MgAcetate and [γ-^33P-ATP] (specific activity approx. 500 cpm/pmol, concentration as required). The reaction is initiated by the addition of the MgATP mix. After incubation for 40 minutes at room temperature, the reaction is stopped by the addition of 5 μL of a 3% phosphoric acid solution. 10 μL of the reaction is then spotted onto a Filtermat A and washed three times for 5 minutes in 75 mM phosphoric acid and once in methanol prior to drying and scintillation counting.
as §2, §3

GSK3β = target: T4, GSK3β (Homo sapiens, UniProt P49841); assay: Millipore radiometric kinase activity assay, GSK3β (h); type: biochemical
T4 construct: purchased Millipore (assay service)
Experimental: as §1
In a final reaction volume of 25 μL, GSK3β (h) (5-10 mU) is incubated with 8 mM MOPS pH 7.0, 0.2 mM EDTA, 20 μM […](p)EDEEE [SEQ ID NO: 57] (phospho GS2 peptide), 10 mM MgAcetate and [γ-^33P-ATP] (specific activity approx. 500 cpm/pmol, concentration as required). The reaction is initiated by the addition of the MgATP mix. After incubation for 40 minutes at room temperature, the reaction is stopped by the addition of 5 μL of a 3% phosphoric acid solution. 10 μL of the reaction is then spotted onto a P30 filtermat and washed three times for 5 minutes in 50 mM phosphoric acid and once in methanol prior to drying and scintillation counting.
as §2, §3

IGF-1R = target: T5, IGF-1R (Homo sapiens, UniProt P08069); assay: Millipore radiometric kinase activity assay, IGF-1R (h); type: biochemical
T5 construct: purchased Millipore (assay service)
Experimental: as §1
as §4, with “IGF-1 R” for “Abl”, “50” for “8”, “Tris” for “MOPS”, “7.5, 0.1” for “7.0, 0.2”, “EGTA, 0.1 mM Na3VO4, 0.1% β-mercaptoethanol, 250” for “EDTA, 50”, “56], 10 mM MnCl2,” for “48],”
as §2, §3

T1 sequence (P00519 whole entry): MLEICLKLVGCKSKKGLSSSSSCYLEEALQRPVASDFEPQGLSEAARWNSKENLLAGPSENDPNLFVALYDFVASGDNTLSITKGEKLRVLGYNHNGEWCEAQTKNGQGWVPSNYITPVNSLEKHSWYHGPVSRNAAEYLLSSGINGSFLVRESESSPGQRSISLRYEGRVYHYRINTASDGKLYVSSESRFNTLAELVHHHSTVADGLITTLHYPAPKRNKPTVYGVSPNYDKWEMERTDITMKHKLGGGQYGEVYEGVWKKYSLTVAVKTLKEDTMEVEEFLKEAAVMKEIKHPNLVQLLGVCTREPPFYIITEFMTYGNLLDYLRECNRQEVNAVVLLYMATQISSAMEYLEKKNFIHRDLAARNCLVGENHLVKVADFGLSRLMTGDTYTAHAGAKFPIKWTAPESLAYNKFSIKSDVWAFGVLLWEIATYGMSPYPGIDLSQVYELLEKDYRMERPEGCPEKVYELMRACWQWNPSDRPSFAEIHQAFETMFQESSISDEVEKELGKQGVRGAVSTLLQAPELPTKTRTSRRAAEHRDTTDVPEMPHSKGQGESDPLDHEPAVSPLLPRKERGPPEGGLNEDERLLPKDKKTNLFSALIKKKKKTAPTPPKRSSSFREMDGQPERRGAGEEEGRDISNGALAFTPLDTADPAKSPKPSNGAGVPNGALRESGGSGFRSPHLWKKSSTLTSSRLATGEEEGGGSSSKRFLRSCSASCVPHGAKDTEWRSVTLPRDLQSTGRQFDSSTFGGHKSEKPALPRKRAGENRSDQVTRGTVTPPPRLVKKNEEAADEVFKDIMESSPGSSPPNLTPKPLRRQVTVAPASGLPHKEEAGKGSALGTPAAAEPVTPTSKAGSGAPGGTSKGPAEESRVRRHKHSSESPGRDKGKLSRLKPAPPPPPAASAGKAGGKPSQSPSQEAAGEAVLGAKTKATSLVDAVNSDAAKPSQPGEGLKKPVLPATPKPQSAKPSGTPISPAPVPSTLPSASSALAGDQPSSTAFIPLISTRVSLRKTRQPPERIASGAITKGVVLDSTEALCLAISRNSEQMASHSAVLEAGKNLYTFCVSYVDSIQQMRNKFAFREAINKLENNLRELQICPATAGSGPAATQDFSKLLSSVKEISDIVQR
T5 sequence (P08069 31-1367): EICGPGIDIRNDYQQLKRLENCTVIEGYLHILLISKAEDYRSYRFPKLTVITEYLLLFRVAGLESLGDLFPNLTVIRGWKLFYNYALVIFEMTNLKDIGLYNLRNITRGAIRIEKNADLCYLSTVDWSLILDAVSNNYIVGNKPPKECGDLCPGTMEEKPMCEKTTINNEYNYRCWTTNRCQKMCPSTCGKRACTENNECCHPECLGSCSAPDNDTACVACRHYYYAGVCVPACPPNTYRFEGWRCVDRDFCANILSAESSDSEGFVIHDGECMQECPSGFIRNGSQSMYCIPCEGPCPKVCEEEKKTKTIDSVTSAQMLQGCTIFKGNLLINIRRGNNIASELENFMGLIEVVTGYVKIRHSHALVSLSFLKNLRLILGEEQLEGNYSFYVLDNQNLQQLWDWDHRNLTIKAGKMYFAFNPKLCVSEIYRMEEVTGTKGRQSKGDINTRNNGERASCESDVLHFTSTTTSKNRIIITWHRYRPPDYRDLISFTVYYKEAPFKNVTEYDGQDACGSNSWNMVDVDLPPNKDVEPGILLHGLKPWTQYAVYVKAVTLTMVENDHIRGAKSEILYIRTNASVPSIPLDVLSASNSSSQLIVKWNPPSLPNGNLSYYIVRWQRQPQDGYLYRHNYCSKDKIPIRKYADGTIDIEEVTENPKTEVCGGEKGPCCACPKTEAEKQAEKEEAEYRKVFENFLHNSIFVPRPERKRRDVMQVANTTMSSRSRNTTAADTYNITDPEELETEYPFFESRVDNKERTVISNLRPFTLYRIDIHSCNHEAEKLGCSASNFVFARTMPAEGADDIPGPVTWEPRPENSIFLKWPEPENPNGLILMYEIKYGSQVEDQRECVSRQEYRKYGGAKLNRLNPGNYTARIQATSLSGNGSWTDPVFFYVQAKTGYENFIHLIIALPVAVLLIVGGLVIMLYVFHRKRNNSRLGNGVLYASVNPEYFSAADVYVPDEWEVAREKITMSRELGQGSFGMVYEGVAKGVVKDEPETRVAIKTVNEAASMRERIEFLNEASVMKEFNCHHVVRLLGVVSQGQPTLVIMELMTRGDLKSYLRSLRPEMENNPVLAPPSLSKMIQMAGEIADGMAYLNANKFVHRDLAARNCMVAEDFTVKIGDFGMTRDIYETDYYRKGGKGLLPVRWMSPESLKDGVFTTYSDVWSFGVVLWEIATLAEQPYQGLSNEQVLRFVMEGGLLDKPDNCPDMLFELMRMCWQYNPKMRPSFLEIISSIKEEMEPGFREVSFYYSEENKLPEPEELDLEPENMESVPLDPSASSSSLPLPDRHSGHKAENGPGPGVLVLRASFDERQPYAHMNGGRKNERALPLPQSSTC
T3 sequence (P29317 24-976): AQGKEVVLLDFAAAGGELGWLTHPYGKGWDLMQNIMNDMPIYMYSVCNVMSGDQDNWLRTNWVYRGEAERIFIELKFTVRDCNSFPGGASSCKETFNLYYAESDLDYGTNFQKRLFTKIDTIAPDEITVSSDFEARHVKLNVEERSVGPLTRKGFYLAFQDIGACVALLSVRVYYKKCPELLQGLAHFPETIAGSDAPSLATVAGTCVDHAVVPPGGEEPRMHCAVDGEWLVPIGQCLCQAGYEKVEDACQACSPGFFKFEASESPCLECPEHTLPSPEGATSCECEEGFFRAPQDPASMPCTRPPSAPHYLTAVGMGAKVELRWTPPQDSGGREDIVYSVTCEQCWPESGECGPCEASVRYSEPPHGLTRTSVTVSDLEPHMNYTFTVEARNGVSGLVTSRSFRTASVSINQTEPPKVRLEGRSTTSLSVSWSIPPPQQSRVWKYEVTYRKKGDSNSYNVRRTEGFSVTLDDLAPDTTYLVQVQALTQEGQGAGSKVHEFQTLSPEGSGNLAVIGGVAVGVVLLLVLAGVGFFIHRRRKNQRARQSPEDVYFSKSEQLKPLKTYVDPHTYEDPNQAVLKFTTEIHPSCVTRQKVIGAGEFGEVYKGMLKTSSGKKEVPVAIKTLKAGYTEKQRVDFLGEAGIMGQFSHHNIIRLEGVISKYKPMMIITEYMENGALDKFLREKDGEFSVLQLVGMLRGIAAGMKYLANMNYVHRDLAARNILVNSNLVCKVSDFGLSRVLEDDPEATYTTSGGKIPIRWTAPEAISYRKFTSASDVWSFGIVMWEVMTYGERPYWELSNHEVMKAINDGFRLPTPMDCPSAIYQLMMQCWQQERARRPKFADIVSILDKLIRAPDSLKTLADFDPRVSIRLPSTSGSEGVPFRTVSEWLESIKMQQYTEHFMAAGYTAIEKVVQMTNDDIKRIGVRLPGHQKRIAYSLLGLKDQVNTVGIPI
T4 sequence (P49841 whole entry): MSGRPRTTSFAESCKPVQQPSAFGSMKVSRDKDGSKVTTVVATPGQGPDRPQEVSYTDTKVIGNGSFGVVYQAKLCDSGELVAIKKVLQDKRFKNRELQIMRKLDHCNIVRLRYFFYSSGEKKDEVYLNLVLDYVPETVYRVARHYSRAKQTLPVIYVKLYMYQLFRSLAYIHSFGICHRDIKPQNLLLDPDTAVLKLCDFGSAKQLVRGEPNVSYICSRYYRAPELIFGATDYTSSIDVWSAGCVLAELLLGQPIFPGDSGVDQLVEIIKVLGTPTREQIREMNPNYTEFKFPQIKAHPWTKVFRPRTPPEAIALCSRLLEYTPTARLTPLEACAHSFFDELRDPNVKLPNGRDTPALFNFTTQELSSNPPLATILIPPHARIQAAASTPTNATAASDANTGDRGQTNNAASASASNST

| Sequence | Percentage of the 43 kinases Tested with less than 20% Activity (43 kinases; Concentration Tested 100 μM) | Abl Kinase Activity (%) (+SD %) (Abl; peptide 100 μM) | PKG1β Kinase Activity (%) (+SD %) (PKG1β; peptide 100 μM) | EphA2 Kinase Activity (%) (+SD %) (EphA2; peptide 100 μM) | GSK3β Kinase Activity (%) (+SD %) (GSK3β; peptide 100 μM) | IGF-1R Kinase Activity (%) (+SD %) (IGF-1R; peptide 100 μM) | Abl Kinase Activity (%) (+SD %) (Abl; peptide 30 μM) | PKG1β Kinase Activity (%) (+SD %) (PKG1β; peptide 30 μM) | Percentage of the 43 kinases Tested with less than 20% Activity (43 kinases; Concentration Tested 30 μM) | EphA2 Kinase Activity (%) (+SD %) (EphA2; peptide 30 μM) | GSK3β Kinase Activity (%) (+SD %) (GSK3β; peptide 30 μM) | IGF-1R Kinase Activity (%) (+SD %) (IGF-1R; peptide 30 μM) |
| --- | --- | --- | --- | --- | --- | --- | --- | --- | --- | --- | --- | --- |
| FAKLAARLYRKALARQLGVAA | 37% |  |  |  |  |  |  |  |  |  |  |  |
| KAFAKLAARLYRKALARQLGVAA |  | 55 (0) % | 24 (5) % | 22 (7) % | 184 (1) % | 76 (12) % |  |  |  |  |  |  |
| WLRRIKAWLRRIKALNRQLGVAA |  | 41 (2) % | 15 (1) % | 32 (2) % | 188 (4) % | 69 (4) % | 24 (5) % | 15 (4) % | 47% | 38 (4) % | 129 (2) % | 227 (12) % |
